B3: NTD_(1-53)-sfGFP-His (domain or fragment)
chain: MNTRNTRSKQRAPFGVSSSVKPRLDLIEQAPNPAYDRHPACITLPERTCRHPL

What was measured:
[1] = target: T1, Rubisco-strep (H. neapolitanus CbbL8S8) (H. neapolitanus, UniProt O85040 1-473; P45686 1-110); assay: BLI
[2] = target: B3; assay: BLI
[3] = target: T1, Rubisco-strep (H. neapolitanus CbbL8S8); assay: SEC
[4] = target: the molecule itself; assay: cryo-EM structure
[5] = target: biotinylated Rubisco (H. neapolitanus, UniProt O85040 1-473; P45686 1-110, biotin (subunit and site not stated)); assay: BLI
[6] = target: T2, CbbS (Rubisco small subunit) (H. neapolitanus, UniProt P45686 1-110); assay: cryo-EM structure
T2 sequence: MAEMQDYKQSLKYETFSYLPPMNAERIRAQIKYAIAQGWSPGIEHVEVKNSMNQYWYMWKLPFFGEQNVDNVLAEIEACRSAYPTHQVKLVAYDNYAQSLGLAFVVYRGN

[7] = target: T1, Rubisco-strep (H. neapolitanus CbbL8S8); assay: cryo-EM structure

B1: NTD_(1-53)-sfGFP R23A (domain or fragment)
chain: MNTRNTRSKQRAPFGVSSSVKPALDLIEQAPNPAYDRHPACITLPERTCRHPL
B1: binds [1].

B2: Rubisco CbbL D99A (complex)
chain 1: MAVKKYSAGVKEYRQTYWMPEYTPLDSDILACFKITPQPGVDREEAAAAVAAESSTGTWTTVWTDLLTDMDYYKGRAYRIEDVPGDDAAFYAFIAYPIALFEEGSVVNVFTSLVGNVFGFKAVRGLRLEDVRFPLAYVKTCGGPPHGIQVERDKMNKYGRPLLGCTIKPKLGLSAKNYGRAVYECLRGGLDFTKDDENINSQPFMRWRDRFLFVQDATETAEAQTGERKGHYLNVTAPTPEEMYKRAEFAKEIGAPIIMHDYITGGFTANTGLAKWCQDNGVLLHIHRAMHAVIDRNPNHGIHFRVLTKILRLSGGDHLHTGTVVGKLEGDRASTLGWIDLLRESFIPEDRSRGIFFDQDWGSMPGVFAVASGGIHVWHMPALVNIFGDDSVLQFGGGTLGHPWGNAAGAAANRVALEACVEARNQGRDIEKEGKEILTAAAQHSPELKIAMETWKEIKFEFDTVDKLDTQNR
chain 2: MAEMQDYKQSLKYETFSYLPPMNAERIRAQIKYAIAQGWSPGIEHVEVKNSMNQYWYMWKLPFFGEQNVDNVLAEIEACRSAYPTHQVKLVAYDNYAQSLGLAFVVYRGN
B2 was tested, and the “fold increase in KD against wild type” value [2] was 10 fold.

B3: binds [3].

B4: Rubisco CbbL Y72A (complex)
chain 1: MAVKKYSAGVKEYRQTYWMPEYTPLDSDILACFKITPQPGVDREEAAAAVAAESSTGTWTTVWTDLLTDMDAYKGRAYRIEDVPGDDAAFYAFIAYPIDLFEEGSVVNVFTSLVGNVFGFKAVRGLRLEDVRFPLAYVKTCGGPPHGIQVERDKMNKYGRPLLGCTIKPKLGLSAKNYGRAVYECLRGGLDFTKDDENINSQPFMRWRDRFLFVQDATETAEAQTGERKGHYLNVTAPTPEEMYKRAEFAKEIGAPIIMHDYITGGFTANTGLAKWCQDNGVLLHIHRAMHAVIDRNPNHGIHFRVLTKILRLSGGDHLHTGTVVGKLEGDRASTLGWIDLLRESFIPEDRSRGIFFDQDWGSMPGVFAVASGGIHVWHMPALVNIFGDDSVLQFGGGTLGHPWGNAAGAAANRVALEACVEARNQGRDIEKEGKEILTAAAQHSPELKIAMETWKEIKFEFDTVDKLDTQNR
chain 2: MAEMQDYKQSLKYETFSYLPPMNAERIRAQIKYAIAQGWSPGIEHVEVKNSMNQYWYMWKLPFFGEQNVDNVLAEIEACRSAYPTHQVKLVAYDNYAQSLGLAFVVYRGN
For B4, the “fold increase in KD against wild type” value [2] was 10 fold.

B5: CbbL (Rubisco large subunit) (natural protein)
chain: MAVKKYSAGVKEYRQTYWMPEYTPLDSDILACFKITPQPGVDREEAAAAVAAESSTGTWTTVWTDLLTDMDYYKGRAYRIEDVPGDDAAFYAFIAYPIDLFEEGSVVNVFTSLVGNVFGFKAVRGLRLEDVRFPLAYVKTCGGPPHGIQVERDKMNKYGRPLLGCTIKPKLGLSAKNYGRAVYECLRGGLDFTKDDENINSQPFMRWRDRFLFVQDATETAEAQTGERKGHYLNVTAPTPEEMYKRAEFAKEIGAPIIMHDYITGGFTANTGLAKWCQDNGVLLHIHRAMHAVIDRNPNHGIHFRVLTKILRLSGGDHLHTGTVVGKLEGDRASTLGWIDLLRESFIPEDRSRGIFFDQDWGSMPGVFAVASGGIHVWHMPALVNIFGDDSVLQFGGGTLGHPWGNAAGAAANRVALEACVEARNQGRDIEKEGKEILTAAAQHSPELKIAMETWKEIKFEFDTVDKLDTQNR
B5: binds [4].

B6: CsoSCA-MBP (enzyme)
chain: MNTRNTRSKQRAPFGVSSSVKPRLDLIEQAPNPAYDRHPACITLPERTCRHPLTDLEANEQLGRCEDSVKNRFDRVIPFLQVVAGIPLGLDYVTRVQELAQSSLGHTLPEELLKDNWISGHNLKGIFGYATAKALTAATEQFSRKIMSEKDDSASAIGFFLDCGFHAVDISPCADGRLKGLLPYILRLPLTAFTYRKAYAGSMFDIEDDLAQWEKNELRRYREGVPNTADQPTRYLKIAVYHFSTSDPTHSGCAAHGSNDRAALEAALTQLMKFREAVENAHCCGASIDILLIGVDTDTDAIRVHIPDSKGFLNPYRYVDNTVTYAQTLHLAPDEARVIIHEAILNANRSDGWAKGNGVASEGMRRFIGQLLINNLSQIDYVVNRHGGRYPPNDIGHAERYISVGDGFDEVQIRNLAYYAHLDTVEENAIDVDVGIKIFTKLNLSRGLPIPIAIHYRYDPNVPGSRERTVVKARRIYNAIKERFSSLDEQNLLQFRLSVQAQDIGSPIEEVASA
With B6 the Kd [5] was 1.2 ± 0.1 nM.

In the case of MNTRNTRSKQRAPFGVSSSVKPRLDLIEQAPNPAYDRHPACITLPERTCR [NTD_(1-50) peptide (CsoSCA residue 1-50)], the binding result [6] is reported as “binds” and the “stoichiometry N” value [7] is reported as 8.

From article doi:10.1101/2021.11.05.467472 (bioRxiv, 2021)
